Source: patent US20230192902A1, “ABCG2 EFFLUX PUMP-CANCER ANTIGEN MULTI-SPECIFIC ANTIBODIES AND COMPOSITIONS, REAGENTS, KITS AND METHODS RELATED THERETO” (Kenjockety Biotechnology, Inc., priority 2020, published 2023)

System: 293T_ABCG2_OX cells (293T cells stably transfected to express ABCG2)
Test: Topotecan cytotoxicity assay in the presence of antibodies (CellTiter-Glo)
Type: cell-based, human
Details: FIG. 1; 293T cells overexpressing ABCG2; 72-96 hr; IC50 values only in the figure
Experimental: Cytotoxicity Assays. The effect of antibodies on topotecan cytotoxicity was evaluated on 293T_ABCG2_OX cells, 293T cells stably transfected to express ABCG2. Cells were plated in 0.05 mL of Assay Media (DMEM +10% FBS) at 5000 cells/well in white, flat bottom 96-well tissue culture plates. Topotecan was prepared at 2X final assay concentration by serial dilution from 200 uM in assay media containing test antibodies or control antibodies at 100 ug/mL (2X final concentration), or Fumitremorgin C (FTC), a small molecule ABCG2 inhibitor at (2X final concentration). An equivalent volume (0.05 mL) of the topotecan/antibody mixture was added to the 293T_ABCG2_OX cells in 96-well plates. The plates were then incubated at 37° C., in 5% CO2. After about 72-96 hr plates were equilibrated to room temperature and cell viability assessed using Promega® CellTiter-Glo® Luminescent Cell Viability Assay according to the manufacturer’s recommended protocol. Luminescence was measured on a Molecular Devices® FlexStation® 3 Multi-Mode Microplate Reader and data analyzed using GraphPad Prism 8.0 software. Half maximal inhibitory concentration (IC50) is the concentration of drug (topotecan or other chemotherapy cytotoxic agent) where the response (cell growth) is reduced by 50%.

B1: 5D3: anti-ABCG2 antibody 5D3; VH SEQ ID NO:5, VL SEQ ID NO:1; tested with human IgG1 constant regions (antibody, V domains shown)
VH: QVQLQESGPGLVKPSQSLSLTCTVTGFSITSDYAWNWIRQFPGKKLEWMGYINFDGGTTYNPSLRGRISITRDTSKNQFFLQLRSVTPEDTATYYCATFYGAKGTLDYWGQGTSVTVSS
VL: DIVLTQSPSSFSVSLGDRVTISCKASGYILNRLAWYQQKPGNAPRLLISGATSLETGFPSRFSGTGSGKDYTLSISSLQTEDVGTYYCQQYWSTPWTFGGGTKLEIR
modifications: human IgG1 constant regions
notes: anti-ABCG2 antibody 5D3; tested with human IgG1 constant regions
- susceptibility of cells to topotecan in the presence of the antibody: increased susceptibility to topotecan

B2: 5D3DDKT14KK5D3: bispecific ABCG2/CD47 antibody: HC and LC from anti-ABCG2 antibody 5D3 and a HC from anti-CD47 antibody 5F9; DD/KK charged pair substitutions (antibody, V domains shown)
VH 1: QVQLQESGPGLVKPSQSLSLTCTVTGFSITSDYAWNWIRQFPGKKLEWMGYINFDGGTTYNPSLRGRISITRDTSKNQFFLQLRSVTPEDTATYYCATFYGAKGTLDYWGQGTSVTVSS
VH 2: QVQLVQSGAEVKKPGASVKVSCKASGYTFTNYNMHWVRQAPGQRLEWMGTIYPGNDDTSYNQKFKDRVTITADTSASTAYMELSSLRSEDTAVYYCARGGYRAMDYWGQGTLVTVSS
VL: DIVLTQSPSSFSVSLGDRVTISCKASGYILNRLAWYQQKPGNAPRLLISGATSLETGFPSRFSGTGSGKDYTLSISSLQTEDVGTYYCQQYWSTPWTFGGGTKLEIR
- susceptibility of cells to topotecan in the presence of the antibody: increased susceptibility to topotecan

B3: 5D3hVHv1DDKT14KK5D3hVLv1: bispecific ABCG2/CD47 antibody: humanized 5D3 VH version 1 (DD), 5F9 HC (KK), humanized 5D3 VL version 1 common light chain (antibody, V domains shown)
VH 1: EVQLQESGPGLVKPSETLSLTCTVSGFSITSDYAWNWIRQPPGKGLEWMGYINFDGGTTYNPSLRGRITISRDTSKNQFSLKLSSVTAADTAVYYCATFYGAKGTLDYWGQGTLVTVSS
VH 2: QVQLVQSGAEVKKPGASVKVSCKASGYTFTNYNMHWVRQAPGQRLEWMGTIYPGNDDTSYNQKFKDRVTITADTSASTAYMELSSLRSEDTAVYYCARGGYRAMDYWGQGTLVTVSS
VL: DIQLTQSPSSLSASVGDRVTITCKASGYILNRLAWYQQKPGKAPKLLISGATSLETGFPSRFSGSGSGKDYTLTISSLQPEDFATYYCQQYWSTPWTFGGGTKLEIK
- susceptibility of cells to topotecan in the presence of the antibody: increased susceptibility to topotecan

B4: 5D3hVHv2DDKT14KK5D3hVLv1: bispecific ABCG2/CD47 antibody: humanized 5D3 VH version 2 (DD), 5F9 HC (KK), humanized 5D3 VL version 1 common light chain (antibody, V domains shown)
VH 1: EVQLQESGPGLVKPSETLSLTCTVSGFSITSDYAWNWIRQPPGKGLEWIGYINFDGGTTYNPSLRGRVTISRDTSKNQFSLKLSSVTAADTAVYYCATFYGAKGTLDYWGQGTLVTVSS
VH 2: QVQLVQSGAEVKKPGASVKVSCKASGYTFTNYNMHWVRQAPGQRLEWMGTIYPGNDDTSYNQKFKDRVTITADTSASTAYMELSSLRSEDTAVYYCARGGYRAMDYWGQGTLVTVSS
VL: DIQLTQSPSSLSASVGDRVTITCKASGYILNRLAWYQQKPGKAPKLLISGATSLETGFPSRFSGSGSGKDYTLTISSLQPEDFATYYCQQYWSTPWTFGGGTKLEIK
- susceptibility of cells to topotecan in the presence of the antibody: increased susceptibility to topotecan
